{"source": "patent US10428308B2", "about": "“Mesoderm and definitive endoderm cell populations” (Icahn School of Medicine at Mount Sinai, priority 2005, dated 2019)", "molecules": {"B1": {"name": "activin: growth factor purchased from R&D systems; induces mesoderm and endoderm (protein, UniProt P08476 311-426, looked up)", "Inhibin beta A chain": "GLECDGKVNICCKKQFFVSFKDIGWNDWIIAPSGYHANYCEGECPSHIAGTSGSSLSFHSTVINHYRMRGHSPFANLKSCCVPTKLRPMSMLYYDDGQNIIKKDIQNMIVEECGCS"}}, "key": {"CD4-HNF/GFP-T ES cells": {"tested_on": "CD4-HNF/GFP-T ES cells", "assay": "Activin A / Wnt3a induction of ES derived primitive streak like cells in serum free culture, with pathway inhibitors", "type": "cell-based, mouse", "settings": "serum free", "procedure": "FIGS. 34A, 34B and 34C depict ES cells differentiated in serum free conditions with Activin A Wnt3a and/or inhibitors of these pathways. ES cells were cultured in serum free media for two days then trypsinized to obtain a single cell population. These cells were then reaggregated with the indicated conditions. At day six, the EBs were plated on matrigel coated dishes in serum free media.\nLiu et. al. (1999) Nat. Genet. 22: 361-4. […] Activin stimulation leads to high levels of CD4 expression that persist after loss of GFP-Bry expression at day 6. […] Wnt does however stimulate expression of the posterior primitive streak markers HoxBI and Tbx6, while activin only induces Tbx6. […] At day 6, EBs that were stimulated with either activin or Wnt3a were plated on matrigel in serum free media to allow further development.\nConsidering that Wnt stimulation induces nodal and activin treatment induces Wnt3 (FIG. 34B), it is unknown whether activin/nodal signaling or Wnt Signaling alone can induce primitive streak formation or whether both factors are required together. CD4-HNF/GFP-T ES cells were induced with either activin or Wnt in conjunction with specific inhibitors of these pathways. DKK1 was used to inhibit Wnt signaling while the small molecule inhibitor SB-431542 (SB) was used to block Nodal/TGFβ signaling. DKK1 functions by binding the Wnt co-receptors, LRP5 and LRP6, which are essential for activation of the βcatenin signaling pathway. […] Inman et. al. (2002) MoI. Pharmacol. 62: 65-74. […] Therefore, to induce mesoderm and endoderm germ layers and their derivative tissues, both activin/Nodal and Wnt signals are required initially."}, "EBs": {"tested_on": "EBs", "assay": "Hematopoietic progenitor potential of activin-induced EBs", "type": "cell-based, mouse", "settings": "day 7 activin-induced EBs, no serum", "procedure": "FIGS. 24A and 24B show the hematopoietic progenitor content of EBs differentiated in the presence of different concentrations of activin. A) Progenitor potential of day 7 EBs, Ep are primitive erythroid progenitors, mac/mix represent definitive hematopoietic progenitors. B) Progenitor potential of day 7 activin-induced EBs following 2.5 days of exposure to serum.\nFor the generation of blast cell colonies (BL-CFC assay), EB-derived cells were plated at 0.5×-1.5×10^5 cells/ml in 1% methylcellulose supplemented with 10% FCS (Hyclone), vascular endothelial growth factor (VEGF; 5 ng/ml), c-kit ligand (KL; 1% conditioned medium), IL-6 (5 ng/ml) and 25% D4T endothelial cell conditioned medium (Kennedy et al. (1997) Nature 386:488-93). Transitional colonies were generated in the absence of VEGF. Colonies were scored following four days of culture. […] Primitive erythroid colonies were scored at day 5-6 of culture, whereas definitive erythroid (BFU-E), macrophage, and multilineage colonies were counted at 7-10 days of culture. […]\nTo further evaluate the hematopoietic potential of these EBs, they were analyzed for progenitor potential."}}, "data": [{"molecule": "B1", "values": [{"measurement": "endodermal gene expression (Alb, Aat, HNF4, Pdxl) by RT-PCR", "setting": "CD4-HNF/GFP-T ES cells; day 6 EBs plated on matrigel a further 6 days", "value": "allowed development of cells expressing the endodermal genes Alb, Aat, HNF4, and Pdxl"}, {"measurement": "induction of GFP^+ CD4^+ cells", "setting": "CD4-HNF/GFP-T ES cells; Activin A 25 ng/ml or Wnt3a 100 ng/ml", "value": "initially induce GFP^+ CD4^+ cells"}, {"measurement": "primitive (Ep) or definitive (mac/mix) hematopoietic progenitors", "setting": "EBs", "value": "no appreciable numbers"}]}]}
